Test results reported in publication PMC3548785, “Identification of a Binding Site for ASF/SF2 on an RNA Fragment Derived from the Hepatitis delta Virus Genome”.

Legend:
His-ASF/SF2 [1] = biological target: T1, His-ASF/SF2 (UniProt Q07955 1-248); test: intrinsic tryptophan fluorescence quenching; apparent KD; 100 mM KCl, 20 mM Tris-HCl pH 7.5, room temperature, 100 nM His-ASF/SF2, excitation 280 nm, emission 340 nm; details: protein: recombinant, tags: C-terminal His6
His-ASF/SF2 [2] = biological target: T1, His-ASF/SF2; test: intrinsic tryptophan fluorescence quenching; no appKD could be calculated; 100 mM KCl, 20 mM Tris-HCl pH 7.5, room temperature, 100 nM His-ASF/SF2, excitation 280 nm, emission 340 nm; details: protein: recombinant; tags: C-terminal His6; hairpin
His-ASF/SF2 [3] = biological target: T1, His-ASF/SF2; test: intrinsic tryptophan fluorescence quenching; no appKD; loss of binding stated; 100 mM KCl, 20 mM Tris-HCl pH 7.5, room temperature, 100 nM His-ASF/SF2, excitation 280 nm, emission 340 nm; details: protein: recombinant; tags: C-terminal His6; hairpin

T1 sequence (Q07955 whole entry): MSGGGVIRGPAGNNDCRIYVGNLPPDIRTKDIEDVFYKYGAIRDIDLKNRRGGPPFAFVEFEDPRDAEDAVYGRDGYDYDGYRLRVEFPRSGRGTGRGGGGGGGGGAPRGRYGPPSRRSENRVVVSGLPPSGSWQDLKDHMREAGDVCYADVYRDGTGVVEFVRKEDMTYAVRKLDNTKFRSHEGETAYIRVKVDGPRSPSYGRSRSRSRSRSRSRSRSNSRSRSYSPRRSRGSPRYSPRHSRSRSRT

B1: R199G (structured_RNA)
RNA: GGGACUGCUCGAGGAUCUCUUCUCUCCCUCCGCGGUUCUUCCUCGACUCGGCCCGGCUCAUCUCGGCUAGAGGCGGCAGUCCUCAGUACUCUUACUCUUUUCUGUAAAGAGGAGACUGCUGGACUCGCCGCCCGAGGCCGAGCCUGAGCCAAGUGCCGAGCGAGGAGACGCGGGGGGAGGAUCAGCACCCGAGAGGGGAUGU
Kd (His-ASF/SF2 [1]; rod-like hairpin): ~640 nM

B2: R177G (structured_RNA)
RNA: GGAUCUCUUCUCUCCCUCCGCGGUUCUUCCUCGACUCGGCCCGGCUCAUCUCGGCUAGAGGCGGCAGUCCUCAGUACUCUUACUCUUUUCUGUAAAGAGGAGACUGCUGGACUCGCCGCCCGAGGCCGAGCCUGAGCCAAGUGCCGAGCGAGGAGACGCGGGGGGAGGAUCAGCACC
Kd (His-ASF/SF2 [1]; hairpin): ~870 nM

B3: R161G (structured_RNA)
RNA: UCUCUCCCUCCGCGGUUCUUCCUCGACUCGGCCCGGCUCAUCUCGGCUAGAGGCGGCAGUCCUCAGUACUCUUACUCUUUUCUGUAAAGAGGAGACUGCUGGACUCGCCGCCCGAGGCCGAGCCUGAGCCAAGUGCCGAGCGAGGAGACGCGGGGGGAGGA
Kd (His-ASF/SF2 [1]; hairpin): ~900 nM

B4: R156G (structured_RNA)
RNA: CUCCCUCCGCGGUUCUUCCUCGACUCGGCCCGGCUCAUCUCGGCUAGAGGCGGCAGUCCUCAGUACUCUUACUCUUUUCUGUAAAGAGGAGACUGCUGGACUCGCCGCCCGAGGCCGAGCCUGAGCCAAGUGCCGAGCGAGGAGACGCGGGGGGAG
binding result (His-ASF/SF2 [2]): no binding

AGUCCUCAGUACUCUUACUCUUUUCUGUAAAGAGGAGACUGCUGGACU (structured_RNA) [R47G]
binding result (His-ASF/SF2 [2]): no binding

B5: R177GΔASF (structured_RNA)
RNA: GGAUCUCUUCCGCGGUUCUUCCUCGACUCGGCCCGGCUCAUCUCGGCUAGAGGCGGCAGUCCUCAGUACUCUUACUCUUUUCUGUAAAGAGGAGACUGCUGGACUCGCCGCCCGAGGCCGAGCCUGAGCCAAGUGCCGAGCGAGGAGACGCGGGUCAGCACC
binding result (His-ASF/SF2 [3]): no binding
